Measurements as given in patent US20110236679A1 (FUJIFILM, published 2011).

Legend:
[1] = biological target: T1, MBP-VH(BGP) and MBP-VL(BGP), separate MBP-fused VH-region and VL-region polypeptides of the anti-osteocalcin …; assay: SPR (BIACORE 3000), BGP heptapeptide over immobilized MBP-VH(BGP) and MBP-VL(BGP)
T1 construct: Two separate chains, not linked, on SENSORCHIP CM5; Substrate I was made from the 1:1:1 complex with the BGP heptapeptide, which was then washed off; In J the chains were immobilized one after the other without antigen; Both entries as printed start with the MBP leader; also called immobilization substrates I, J
Protocol: Commercially available SENSORCHIP CM5 (trade name, manufactured by GE Healthcare) was set in a Surface Plasmon Resonance Analyzer (trade name: BIACORE 3000, manufactured by Biacore). The substrate surface was stabilized with HEPES buffer solution for SPR (20 mM HEPES-HCl, 150 mM NaCl, pH 7.4) at a flow rate of 10 μl/min, and then 70 μl of a mixed aqueous solution of 0.2 mM EDC and 0.04 mM NHS was injected thereonto. Thereafter, 50 μl of a two-fold dilution of the above complex sample solution with an acetate buffer (pH 4.5) was injected onto the substrate sample, and then blocking treatment was performed with an ethanolamine solution.
Time-dependent change in binding over a period of 10 minutes from starting the addition of the BGP heptapeptide was measured using BIACORE 3000. The binding ratio of the BGP heptapeptide was obtained by dividing the binding amount of the BGP heptapeptide over the 10-minutes-period by the immobilization amount of the antibody fragments.

lysozyme [2] = biological target: T2, lysozyme (hen (hen egg lysozyme, as named for the …, UniProt P00698 19-147)); assay: SPR (BIACORE 3000), 100 nM lysozyme injected for 10 min; lysozyme bound divided by fragments immobilized; VH and VL fragments immobilized one after the other without antigen
T2 construct: also called hen egg lysozyme; HEL
Protocol: (§1) Time-dependent change in lysozyme binding over a period of 10 minutes from starting the addition of lysozyme was measured using BIACORE 3000. The binding ratio of lysozyme was obtained by dividing the binding amount of lysozyme during the 10-minutes-period by the immobilization amount of the antibody fragments.
(§2) The binding amount of lysozyme was calculated and expressed as a relative value, assuming that the binding amount of lysozyme in Comparative Example 2 is 1.

lysozyme [3] = biological target: T2, lysozyme; assay: SPR (BIACORE 3000), 100 nM lysozyme injected for 10 min; lysozyme bound divided by fragments immobilized; fragments immobilized as 10:10:3 complex with lysozyme, antigen washed off
Protocol: as §1, §2

T2 sequence (P00698 19-147 limits assumed): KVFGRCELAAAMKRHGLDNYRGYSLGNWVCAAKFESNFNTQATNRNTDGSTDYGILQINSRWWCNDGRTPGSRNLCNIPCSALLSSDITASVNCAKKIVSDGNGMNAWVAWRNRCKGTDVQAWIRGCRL

Row | Binder | binding result [1] | Lysozyme binding ratio (lysozyme [2]) | Lysozyme binding ratio (lysozyme [3])
1 | RRFYGPY (also called BGP heptapeptide; osteocalcin C-terminal heptapeptide) [C-terminal heptapeptide fragment of BGP (RRFYGPY)] | binds | – | –
2 | VH(HEL)-His6 and VL(HEL)-His10, separate VH-region and VL-region polypeptides of the anti-hen egg lysozyme antibody LxE16, immobilized together on a sensor chip (other, Two separate chains, not linked; Substrate G was made from the 10:10:3 complex with lysozyme, which was then washed off; In H the chains were immobilized one after the other without antigen; also called immobilization substrates G, H) VH: EVQLQESGPSLVKPSQTLSLTCSVTGDSITRGYWSWIRKFPGNKLEYMGYISYSGSTFYNPSLKSRISITRDTFKNQLYLQLNSVTTEDTATYYCAEYDGTYWGQGTTVTVHHHHHHGAAEQKLISEEDLNGAA VL: VEFAAQPAMASTDILMTQTPATLSVTPGDSVSLSCRASQSIGNNLHWFQQKSHESPRLLIKYASQSISGIPSRFSGSGSGTDFTLSINTVETEDFGMYFCQQSNSWPYTFGGGTKLEIKRAAAEHHHHHHHHHH | – | 1 relative value (text: Comparative Example 2 = 1; in the table Comparative Example 4 stands at 1) | 7.6 relative value (text: Comparative Example 2 = 1; in the table Comparative Example 4 stands at 1)
